Residue numbers refer to the chain shown, from its start.
T1: recombinant hIL1RAP Domain1+2+3 (aa21-367) (human, UniProt Q9NPH3 21-367)
T1 construct: Numbering on Uniprot Q9NPH3
T1 sequence (looked up): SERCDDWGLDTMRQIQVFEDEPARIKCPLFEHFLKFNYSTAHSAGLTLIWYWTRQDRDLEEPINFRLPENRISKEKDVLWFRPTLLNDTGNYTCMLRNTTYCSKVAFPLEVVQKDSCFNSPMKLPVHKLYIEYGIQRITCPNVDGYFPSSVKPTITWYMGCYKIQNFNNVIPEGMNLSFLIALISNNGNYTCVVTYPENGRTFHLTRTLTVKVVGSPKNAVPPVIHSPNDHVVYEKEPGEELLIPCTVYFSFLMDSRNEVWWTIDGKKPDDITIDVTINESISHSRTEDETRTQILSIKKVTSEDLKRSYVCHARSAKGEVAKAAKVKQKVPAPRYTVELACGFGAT

T2: human IL1RAP on the cell surface (human, UniProt Q9NPH3 21-570)
T2 sequence (looked up): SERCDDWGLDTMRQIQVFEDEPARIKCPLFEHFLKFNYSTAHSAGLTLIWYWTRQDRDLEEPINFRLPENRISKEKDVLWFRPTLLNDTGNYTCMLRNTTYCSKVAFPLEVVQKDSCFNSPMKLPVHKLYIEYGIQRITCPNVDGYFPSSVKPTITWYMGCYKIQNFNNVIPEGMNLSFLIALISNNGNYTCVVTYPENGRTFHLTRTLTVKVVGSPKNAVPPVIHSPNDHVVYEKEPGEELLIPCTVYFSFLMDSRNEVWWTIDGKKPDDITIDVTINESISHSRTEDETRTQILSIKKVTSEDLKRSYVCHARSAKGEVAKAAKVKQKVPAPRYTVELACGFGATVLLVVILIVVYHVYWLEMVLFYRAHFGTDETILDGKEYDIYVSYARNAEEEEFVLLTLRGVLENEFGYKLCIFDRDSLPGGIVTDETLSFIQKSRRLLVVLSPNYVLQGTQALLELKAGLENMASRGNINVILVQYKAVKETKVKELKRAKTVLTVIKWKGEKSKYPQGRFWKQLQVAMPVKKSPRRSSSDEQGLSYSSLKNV

T3: recombinant mf IL1RAP aa21-367 (cynomolgus monkey (Macaca fascicularis), UniProt A0A2K5X5J5 21-367)
T3 construct: also called cynomolgus monkey IL1RAP; cyno IL1RAP
T3 sequence: T1 sequence (looked up) with L183F, T273P, K326T

B1: h48D2 VH3:VL4 (antibody, human IgG1, kappa, L234A L235A, V domains shown)
VH: EVQLLESGGGLVLPGGSLRLSCAASGPSLSHFDITWVRQAPGKGLEWVSTISPGVSTYYASWAKSRFTISRDNSKNTLYLQMSSLRAEDTAVYYCARGGVGSSWKAFDLWGLGTTVTVSS
VL: ELVMTQSPSSVSASVGDRVTITCQASESISTALAWYQQKPGKAPKLLIYKASTLPSGVPSRFSGSGSGTDFTLTINSLQPEDFATYYCQQGFSSGNVHNAFGGGTKVEIKR
notes: Humanized; also called VL4:VH3
B2: h48D2 VH1:VL5 (antibody, human IgG1, kappa, L234A L235A, V domains shown)
VH: B1 VH with L5E, L13K, S83N, L112R, T115L
VL: APVLTQSPATLEASVGDRVTITCQASESISTALAWYQQKPGQPPKLLIYKASTLPSGVPSRFSGSGSGTEFTLTISDLESDDAATYYCQQGFSSGNVHNAFGGGTEVVVKR
notes: Humanized; also called VL5:VH1
B3: h48D2 VH2:VL5 (antibody, human IgG1, kappa, L234A L235A, V domains shown)
VH: EVQLVESGGALVQPGGSLRLSCIVSGPSLSHFDITWFRQAPGKGLEWVATISPGVSTYYASWAKSRFTISTDTSKNTLFLQMDSLRAEDTAVYYCARGGVGSSWKAFDLWGPGTLVTVSS
VL: B2 VL
notes: Humanized; also called VL5:VH2
B4: h48D2 VH3:VL5 (antibody, human IgG1, kappa, L234A L235A, V domains shown)
VH: B1 VH
VL: B2 VL
notes: Humanized; also called VL5:VH3
B5: h48D2 VH2:VL2 (antibody, human IgG1, kappa, L234A L235A, V domains shown)
VH: B3 VH
VL: QIVLTQSPATLSASVGDRVTITCQASESISTALAWYQQKPGKAPKLLIYKASTLPSGVPSRFSGSGSGTEFTLTISSLQPDDSATYYCQQGFSSGNVHNAFGQGTKLEIKR
notes: Humanized; also called VL2:VH2
B6: h48D2 VH2:VL3 (antibody, human IgG1, kappa, L234A L235A, V domains shown)
VH: B3 VH
VL: DILLTQTPSVVSASVGDRVTITCQASESISTALAWYQQKPGQAPRLLIYKASTLPSGVPSRFRGSGSGTDFTLTITSLQPEDFATYYCQQGFSSGNVHNAFGGGTRLEIKR
notes: Humanized; also called VL3:VH2
B7: h48D2 VH2:VL4 (antibody, human IgG1, kappa, L234A L235A, V domains shown)
VH: B3 VH
VL: B1 VL
notes: Humanized; also called VL4:VH2
B8: h48D2 VH3:VL2 (antibody, human IgG1, kappa, L234A L235A, V domains shown)
VH: B1 VH
VL: B5 VL
notes: Humanized; also called VL2:VH3
B9: h48D2 VH3:VL3 (antibody, human IgG1, kappa, L234A L235A, V domains shown)
VH: B1 VH
VL: B6 VL
notes: Humanized; also called VL3:VH3
B10: h48D2 VH4:VL1 (antibody, human IgG1, kappa, L234A L235A, V domains shown)
VH: QVQLQESGPGLVKPSETLSLTCTVSGPSLSHFDITWIRQPPGKGLEWIGTISPGVSTYYASWAKSRFTISVDTSKNQFSLKLTSVTAADTATYYCARGGVGSSWKAFDLWGPGTLVTVSS
VL: B1 VL with E1D, L2I, V11L, N76S, E108V
notes: Humanized; also called VL1:VH4
B11: h48D2 VH4:VL2 (antibody, human IgG1, kappa, L234A L235A, V domains shown)
VH: B10 VH
VL: B5 VL
notes: Humanized; also called VL2:VH4
B12: h48D2 VH4:VL3 (antibody, human IgG1, kappa, L234A L235A, V domains shown)
VH: B10 VH
VL: B6 VL
notes: Humanized; also called VL3:VH4
B13: h48D2 VH4:VL4 (antibody, human IgG1, kappa, L234A L235A, V domains shown)
VH: B10 VH
VL: B1 VL
notes: Humanized; also called VL4:VH4

biological target: T1, recombinant hIL1RAP Domain1+2+3 …; assay: binding ELISA, coated recombinant hIL1RAP aa21-367

Row | Binder | IC50 [µg/mL]
1 | B1 | 0.0263
2 | B2 | 0.0234
3 | B3 | 0.0249
4 | B4 | 0.0232
5 | B5 | 0.0261
6 | B6 | 0.0273
7 | B7 | 0.0262
8 | B8 | 0.0258
9 | B9 | 0.0281
10 | B10 | 0.0308
11 | B11 | 0.0322
12 | B12 | 0.0312
13 | B13 | 0.0243

biological target: T2, human IL1RAP on the cell surface; assay: cell-based or functional assay

Row | Binder | IC50 of IL-1β signaling (HEK-Blue assay) [µM] | IC50 of IL-1α signaling (HEK-Blue assay) [µM] | IC50 of IL-33 signaling (HEK-Blue assay) [µM]
14 | B1 | 0.0223 |  | 
15 | B2 | 0.0202 | 0.528 | 0.0747
16 | B3 | 0.00577 | 0.401 | 0.183
17 | B4 | 0.00987 | 0.288 | 0.474
18 | B5 | 0.000882 |  | 0.0458
19 | B6 | 0.00366 |  | 1.95
20 | B7 | 0.00136 | ~4130 | 0.0864
21 | B8 | 0.00911 |  | 0.474
22 | B9 | 0.0105 |  | 
23 | B10 | 0.00295 |  | 
24 | B11 | 0.00555 |  | 
25 | B12 | 0.00297 |  | 7.03
26 | B13 | 0.00467 |  | 0.26

biological target: T3, recombinant mf IL1RAP aa21-367; assay: binding ELISA, coated recombinant mf IL1RAP aa21-367

Row | Binder | IC50 [µg/mL]
27 | B1 | 0.0303
28 | B2 | 0.0242
29 | B3 | 0.0279
30 | B4 | 0.0279
31 | B5 | 0.0292
32 | B6 | 0.0314
33 | B7 | 0.0312
34 | B8 | 0.0274
35 | B9 | 0.0279
36 | B10 | 0.0316
37 | B11 | 0.0291
38 | B12 | 0.0302
39 | B13 | 0.0251

biological target: T1, recombinant hIL1RAP Domain1+2+3 …; assay: bio-layer interferometry, human IL1RAP
Description: Affinity measurements were done on BLItz™ Label-Free Protein Analysis System from ForteBio, using the Basic Kinetics module in the BLItz Pro 1.3.1.3 software from Molecular Devices. Protein A biosensors were hydrated in blocking buffer (PBS, 0.5% BSA, 0.05% Tween 20, pH 7.4) for minimum 10 min at room temperature before coating. Protein A biosensors were coated with antibodies by dipping the biosensors in 200 μl of antibody solution (10 μg/ml in blocking buffer) for 30 min at room temperature. The sensors were then incubated in 200 μl blocking buffer for at least 10 min before use. […] The baseline was made in blocking buffer with a duration time of 30 sec. Association was made for 120 sec in hIL1RAP followed by 120 sec dissociation in blocking buffer.
The antibodies were characterized for A) binding (ELISA analysis, human and cynomolgus monkey IL1RAP), B) inhibition of cytokine signaling (HEK-Blue™ assay), C) affinity (Bio-layer interferometry), D) size heterogeneity (SE-HPLC) and E) yield (concentration, A280). […] SE-HPLC was performed using standard procedures and PBS as running buffer. Affinity and cytokine inhibition were measured as previously described in Example 10. All 25 humanized clones were analyzed for blocking activity on IL-1α, IL-1β and IL-33 signaling while only the clones that had retained the inhibitory activity similar to chimeric 48D2 were analyzed for IL-36 inhibition.
KD values for affinity towards human IL1RAP are shown in Table 11 for the humanized 48D2 variants. Affinity was measured using bio-layer interferometry. […] See also Table 4 for a direct comparison of chimeric 48D2, humanized 48D2 variant VH5:VL4, and a humanized and de-immunized 48D2 variant VH5.GL:VL4.

Row | Binder | Kd [µM]
40 | B1 | 0.0296
41 | B2 | 0.0316
42 | B3 | 0.012
43 | B4 | 0.0344
44 | B5 | 0.00733
45 | B6 | 0.0121
46 | B7 | 0.0112
47 | B8 | 0.0224
48 | B9 | 0.0274
49 | B10 | 0.0197
50 | B11 | 0.0132
51 | B12 | 0.0167
52 | B13 | 0.0228

Reference: patent US20220242950A1 (CANTARGIA, published 2022)
